# Results reported in patent US5830755.
# Columns and labels:
# [1] = biological target: CD3 on murine TIL (murine)
# [2] = biological target: MART-1(27-36) peptide … presented by HLA-A2.1 (human)
# [3] = biological target: gp100(457-465) peptide … presented by HLA-A2.1 (human)
# [4] = biological target: MART-1(32-40) peptide … pulsed on HLA-A2.1 T2 cells (human)
# [5] = biological target: MART-1(22-30) peptide … pulsed on HLA-A2.1 T2 cells (human)
# [6] = biological target: MART-1(27-35) peptide … presented by HLA-A2.1 (human)
# [7] = biological target: 38 kD folate binding protein (FBP) (Homo sapiens (Human)) (UniProt P15328)
# [8] = biological target: 38 kD folate binding protein (FBP) (Homo sapiens (Human)) (UniProt P15328); remark: listed apart in the source
# [9] = biological target: 38 kD folate binding protein (FBP) (Homo sapiens (Human)) (UniProt P15328); remark: listed apart in the source
# [10] = biological target: MART-1 antigen processed in the cell and presented by HLA-A2.1 (human) (UniProt Q16655)
# [11] = biological target: gp100 antigen processed in the cell and presented by HLA-A2.1 (human) (UniProt P40967)
# [12] = biological target: MART-1(27-36) peptide … presented by HLA-A2.1 (human); remark: listed apart in the source
# [13] = biological target: MART-1(26-35) peptide … presented by HLA-A2.1 (human)
# [14] = biological target: melanoma antigen presented by HLA-A1 on HLA-A1+, HLA-A2- melanoma cell lines (peptide not identified) (human)
# [15] = biological target: gp100(280-288) peptide … presented by HLA-A2.1 (human)
# [16] = biological target: melanoma antigen presented by HLA-A2 on HLA-A2+ melanoma cell lines (peptide not identified in the experiment) (human)
# [17] = biological target: MART-1(22-30) peptide … pulsed on HLA-A2.1 T2 cells (human); remark: listed apart in the source
# [18] = biological target: MART-1(27-35) peptide … presented by HLA-A2.1 (human); remark: listed apart in the source
# [19] = biological target: melanoma antigen presented by HLA-A1 on HLA-A1+, HLA-A2- melanoma cell lines (peptide not identified) (human); remark: listed apart in the source
# [20] = biological target: melanoma antigen presented by HLA-A2 on HLA-A2+ melanoma cell lines (peptide not identified in the experiment) (human); remark: listed apart in the source
# [21] = biological target: MART-1(26-35) peptide … presented by HLA-A2.1 (human); remark: listed apart in the source
# [22] = biological target: MART-1 antigen processed in the cell and presented by HLA-A2.1 (human) (UniProt Q16655); remark: listed apart in the source
# [23] = biological target: melanoma antigen presented by HLA-A1 on HLA-A1+, HLA-A2- melanoma cell lines (peptide not identified) (human); remark: listed apart in the source
# [24] = biological target: melanoma antigen presented by HLA-A1 on HLA-A1+, HLA-A2- melanoma cell lines (peptide not identified) (human); remark: listed apart in the source
# [25] = biological target: melanoma antigen presented by HLA-A2 on HLA-A2+ melanoma cell lines (peptide not identified in the experiment) (human); remark: listed apart in the source
# [26] = biological target: MART-1(27-35) peptide … presented by HLA-A2.1 (human); remark: listed apart in the source
# [27] = biological target: MART-1(27-35) peptide … presented by HLA-A2.1 (human); remark: listed apart in the source
substance,measurement,setting,value
2C11 (anti-CD3) antibody,pg mIFN-γ/ml/5 × 10^5 cells/16 hours,[1],> 50000 pg/mL
"Jurkat neo (non-transfected Jurkat cells with the endogenous Jurkat TCR, Vβ8)",IL-2 released,[2],< 10 pg/mL
same,IL-2 released,[3],< 10 pg/mL
same,IL-2 released,[4],< 10 pg/mL
same,IL-2 released,[5],< 10 pg/mL
same,IL-2 released,[6],< 10 pg/mL
MOv-γ chimeric receptor (scFv of MoAb MOv18 joined to the Fc receptor γ chain) (CAR),"mIFN-γ, pg/1.5 × 10^6 splenocytes/ml/48 hrs, fresh splenocytes",[7],1080 pg/mL
same,"mIFN-γ, pg/1.5 × 10^6 splenocytes/ml/18 hrs, activated splenocytes",[8],2830 pg/mL
same,pg mIFN-γ/ml/5 × 10^5 cells/16 hours,[9],16000 pg/mL
"Sp-γ chimeric receptor (scFv of anti-2,4,6 TNP MoAb Sp6 joined to the Fc receptor γ chain) (CAR)",pg mIFN-γ/ml/5 × 10^5 cells/16 hours,[9],1010 pg/mL
TIL 501 (uncloned TIL culture) (cells without a defined receptor),IFN-γ Secretion,[10],121 pg/mL
same,IFN-γ Secretion,[11],< 10 pg/mL
TIL 660 (uncloned TIL line) (cells without a defined receptor),IFN-γ Secretion,[12],52 pg/mL
same,IFN-γ Secretion,[13],1120 pg/mL
same,IFN-γ Secretion,[14],27 pg/mL
same,IFN-γ Secretion,[15],1320 pg/mL
same,IFN-γ Secretion,[16],585 pg/mL
same,IFN-γ Secretion,[17],21 pg/mL
same,IFN-γ Secretion,[18],2330 pg/mL
TIL 1143 (uncloned TIL culture) (cells without a defined receptor),IFN-γ Secretion,[10],986 pg/mL
same,IFN-γ Secretion,[11],199 pg/mL
"TIL 1200 TCR (TIL 1200 clonotype, Vα9/Jα16/Cα and Vβ22.1/Dβ2.1/Jβ2.1/Cβ2)","% lysis, 4 hour 51Cr release, E:T 40:1",[19],2 % lysis
same,"% lysis, 4 hour 51Cr release, E:T 40:1",[20],68 % lysis
same,GM-CSF released,[2],19 pg/mL
same,GM-CSF released,[21],23 pg/mL
same,GM-CSF released,[3],240 pg/mL
same,GM-CSF released,[4],< 10 pg/mL
same,GM-CSF released,[5],< 10 pg/mL
same,GM-CSF released,[6],19 pg/mL
same,IFN-γ Secretion,[10],< 10 pg/mL
same,IFN-γ Secretion,[11],451 pg/mL
TIL 1235 (uncloned TIL line) (cells without a defined receptor),GM-CSF released,[2],614 pg/mL
same,GM-CSF released,[21],6710 pg/mL
same,GM-CSF released,[3],27 pg/mL
same,GM-CSF released,[4],< 10 pg/mL
same,GM-CSF released,[5],21 pg/mL
same,GM-CSF released,[6],11900 pg/mL
same,GM-CSF released,[22],557 pg/mL
same,GM-CSF released,[23],< 10 pg/mL
same,IFN-γ Secretion,[15],15 pg/mL
"TIL C10-1 TCR (C10-1 T-cell clonotype, Vα8.2/Jα49/Cα and Vβ13.6/Dβ1.1/Jβ1.5/Cβ1)","% lysis, 4 hour 51Cr release, E:T 40:1",[19],55 % lysis
same,"% lysis, 4 hour 51Cr release, E:T 40:1",[20],0 % lysis
"TIL F2-2 TCR (TIL F2-2 clonotype, Vα17/Jα42/Cα and Vβ6.5/Dβ1.1/Jβ1.5/Cβ1)","% lysis, 4 hour 51Cr release, E:T 40:1",[19],1 % lysis
same,"% lysis, 4 hour 51Cr release, E:T 40:1",[20],46 % lysis
"clone 1E2 TCR (TIL 1E2 clonotype, Vα25/Jα54/Cα and Vβ3.1/Dβ1.1/Jβ1.1/Cβ1)","% lysis, 5 hr 51Cr release, E:T 20:1",[24],0 % lysis
same,"% lysis, 5 hr 51Cr release, E:T 20:1",[25],94 % lysis
same,IFN-γ Secretion,[10],1340 pg/mL
same,IFN-γ Secretion,[11],< 10 pg/mL
same,IFN-γ Secretion,[12],24 pg/mL
same,IFN-γ Secretion,[13],5250 pg/mL
same,IFN-γ Secretion,[14],29 pg/mL
same,IFN-γ Secretion,[15],21 pg/mL
same,IFN-γ Secretion,[16],2700 pg/mL
same,IFN-γ Secretion,[17],18 pg/mL
same,IFN-γ Secretion,[18],16500 pg/mL
"clone 5 TCR (TIL5 clonotype, Vα1/Jα49/Cα and Vβ7.3/Dβ2.1/Jβ2.1/Cβ2)",concentration of peptide required to provide 50% of maximal IL-2 stimulation,[26],50 to 200 nM
same,"% lysis, 4 hour 51Cr release, E:T 10:1",[19],-2 % lysis
same,"% lysis, 4 hour 51Cr release, E:T 10:1",[20],52 % lysis
same,IL-2 released,[2],469 pg/mL
same,IL-2 released,[21],4060 pg/mL
same,IL-2 released,[3],< 10 pg/mL
same,IL-2 released,[4],< 10 pg/mL
same,IL-2 released,[5],< 10 pg/mL
same,IL-2 released,[6],4760 pg/mL
same,"IL-2 released (pg/ml), HLA-A2+ melanoma cells loaded with peptide",[27],540 pg/mL
"clone A42 TCR (TIL A42 clonotype, Vα21/Jα42/Cα and Vβ7.3/Dβ2.1/Jβ2.7/Cβ2)","% lysis, 5 hr 51Cr release, E:T 20:1",[24],0 % lysis
same,"% lysis, 5 hr 51Cr release, E:T 20:1",[25],57 % lysis
same,IFN-γ Secretion,[10],730 pg/mL
same,IFN-γ Secretion,[11],< 10 pg/mL
same,IFN-γ Secretion,[12],22 pg/mL
same,IFN-γ Secretion,[13],765 pg/mL
same,IFN-γ Secretion,[14],18 pg/mL
same,IFN-γ Secretion,[15],19 pg/mL
same,IFN-γ Secretion,[16],772 pg/mL
same,IFN-γ Secretion,[17],16 pg/mL
same,IFN-γ Secretion,[18],> 20000 pg/mL
nontransduced murine MC38 TIL (cells without a defined receptor),pg mIFN-γ/ml/5 × 10^5 cells/16 hours,[9],1640 pg/mL
splenocytes of normal mice (cells without a defined receptor),"mIFN-γ, pg/1.5 × 10^6 splenocytes/ml/48 hrs, fresh splenocytes",[7],92 pg/mL
